Measurements taken from IntAct's records for PubMed 31515488.

B1: Zinc finger protein Aiolos (Homo sapiens), Q9UKT9 (parent)
chain: MEDIQTNAELKSTQEQSVPAESAAVLNDYSLTKSHEMENVDSGEGPANEDEDIGDDSMKVKDEYSERDENVLKSEPMGNAEEPEIPYSYSREYNEYENIKLERHVVSFDSSRPTSGKMNCDVCGLSCISFNVLMVHKRSHTGERPFQCNQCGASFTQKGNLLRHIKLHTGEKPFKCHLCNYACQRRDALTGHLRTHSVEKPYKCEFCGRSYKQRSSLEEHKERCRTFLQSTDPGDTASAEARHIKAEMGSERALVLDRLASNVAKRKSSMPQKFIGEKRHCFDVNYNSSYMYEKESELIQTRMMDQAINNAISYLGAEALRPLVQTPPAPTSEMVPVISSMYPIALTRAEMSNGAPQELEKKSIHLPEKSVPSERGLSPNNSGHDSTDTDSNHEERQNHIYQQNHMVLSRARNGMPLLKEVPRSYELLKPPPICPRDSVKVINKEGEVMDVYRCDHCRVLFLDYVMFTIHMGCHGFRDPFECNMCGYRSHDRYEFSSHIARGEHRALLK
B2: Methylthioribulose-1-phosphate dehydratase (Homo sapiens), Q96GX9 (parent)
chain: MSGCDAREGDCCSRRCGAQDKEHPRYLIPELCKQFYHLGWVTGTGGGISLKHGDEIYIAPSGVQKERIQPEDMFVCDINEKDISGPSPSKKLKKSQCTPLFMNAYTMRGAGAVIHTHSKAAVMATLLFPGREFKITHQEMIKGIKKCTSGGYYRYDDMLVVPIIENTPEEKDLKDRMAHAMNEYPDSCAVLVRRHGVYVWGETWEKAKTMCECYDYLFDIAVSMKKVGLDPSQLPVGENGIV
partner: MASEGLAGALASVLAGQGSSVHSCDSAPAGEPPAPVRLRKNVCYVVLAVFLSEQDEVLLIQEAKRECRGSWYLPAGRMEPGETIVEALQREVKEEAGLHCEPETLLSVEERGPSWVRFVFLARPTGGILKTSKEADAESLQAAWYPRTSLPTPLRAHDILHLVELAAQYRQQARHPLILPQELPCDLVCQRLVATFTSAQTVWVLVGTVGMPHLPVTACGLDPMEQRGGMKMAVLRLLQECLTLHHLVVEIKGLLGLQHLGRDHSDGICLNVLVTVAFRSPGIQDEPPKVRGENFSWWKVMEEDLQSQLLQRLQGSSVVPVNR
B3: Rho guanine nucleotide exchange factor 3 (Homo sapiens), Q9NR81 (parent)
chain: MVAKDYPFYLTVKRANCSLELPPASGPAKDAEEPSNKRVKPLSRVTSLANLIPPVKATPLKRFSQTLQRSISFRSESRPDILAPRPWSRNAAPSSTKRRDSKLWSETFDVCVNQMLTSKEIKRQEAIFELSQGEEDLIEDLKLAKKAYHDPMLKLSIMTEQELNQIFGTLDSLIPLHEELLSQLRDVRKPDGSTEHVGPILVGWLPCLSSYDSYCSNQVAAKALLDHKKQDHRVQDFLQRCLESPFSRKLDLWNFLDIPRSRLVKYPLLLREILRHTPNDNPDQQHLEEAINIIQGIVAEINTKTGESECRYYKERLLYLEEGQKDSLIDSSRVLCCHGELKNNRGVKLHVFLFQEVLVITRAVTHNEQLCYQLYRQPIPVKDLLLEDLQDGEVRLGGSLRGAFSNNERIKNFFRVSFKNGSQSQTHSLQANDTFNKQQWLNCIRQAKETVLCAAGQAGVLDSEGSFLNPTTGSRELQGETKLEQMDQSDSESDCSMDTSEVSLDCERMEQTDSSCGNSRHGESNV
B4: Protein unc-45 homolog A (Homo sapiens), Q9H3U1 (parent)
chain: MTVSGPGTPEPRPATPGASSVEQLRKEGNELFKCGDYGGALAAYTQALGLDATPQDQAVLHRNRAACHLKLEDYDKAETEASKAIEKDGGDVKALYRRSQALEKLGRLDQAVLDLQRCVSLEPKNKVFQEALRNIGGQIQEKVRYMSSTDAKVEQMFQILLDPEEKGTEKKQKASQNLVVLAREDAGAEKIFRSNGVQLLQRLLDMGETDLMLAALRTLVGICSEHQSRTVATLSILGTRRVVSILGVESQAVSLAACHLLQVMFDALKEGVKKGFRGKEGAIIVDPARELKVLISNLLDLLTEVGVSGQGRDNALTLLIKAVPRKSLKDPNNSLTLWVIDQGLKKILEVGGSLQDPPGELAVTANSRMSASILLSKLFDDLKCDAERENFHRLCENYIKSWFEGQGLAGKLRAIQTVSCLLQGPCDAGNRALELSGVMESVIALCASEQEEEQLVAVEALIHAAGKAKRASFITANGVSLLKDLYKCSEKDSIRIRALVGLCKLGSAGGTDFSMKQFAEGSTLKLAKQCRKWLCNDQIDAGTRRWAVEGLAYLTFDADVKEEFVEDAAALKALFQLSRLEERSVLFAVASALVNCTNSYDYEEPDPKMVELAKYAKQHVPEQHPKDKPSFVRARVKKLLAAGVVSAMVCMVKTESPVLTSSCRELLSRVFLALVEEVEDRGTVVAQGGGRALIPLALEGTDVGQTKAAQALAKLTITSNPEMTFPGERIYEVVRPLVSLLHLNCSGLQNFEALMALTNLAGISERLRQKILKEKAVPMIEGYMFEEHEMIRRAATECMCNLAMSKEVQDLFEAQGNDRLKLLVLYSGEDDELLQRAAAGGLAMLTSMRPTLCSRIPQVTTHWLEILQALLLSSNQELQHRGAVVVLNMVEASREIASTLMESEMMEILSVLAKGDHSPVTRAAAACLDKAVEYGLIQPNQDGE

Variants of: B1
Conditions: with aakb2_human PRKAB2, O43741
Chain of aakb2_human PRKAB2, O43741 (O43741 whole entry): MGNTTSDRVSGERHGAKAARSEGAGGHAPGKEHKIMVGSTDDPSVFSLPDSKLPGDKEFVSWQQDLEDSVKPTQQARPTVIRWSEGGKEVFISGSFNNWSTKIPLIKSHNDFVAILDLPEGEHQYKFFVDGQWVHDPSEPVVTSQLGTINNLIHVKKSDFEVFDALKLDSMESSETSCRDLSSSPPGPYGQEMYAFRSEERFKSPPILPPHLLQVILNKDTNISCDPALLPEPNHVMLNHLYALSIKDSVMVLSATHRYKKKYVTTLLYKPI

| effect of a mutation on the interaction | Variant |
| --- | --- |
| with no effect | A24V |

Variants of: B1
Conditions: with exoc8_human EXOC8, Q8IYI6
Chain of exoc8_human EXOC8, Q8IYI6 (Q8IYI6 whole entry): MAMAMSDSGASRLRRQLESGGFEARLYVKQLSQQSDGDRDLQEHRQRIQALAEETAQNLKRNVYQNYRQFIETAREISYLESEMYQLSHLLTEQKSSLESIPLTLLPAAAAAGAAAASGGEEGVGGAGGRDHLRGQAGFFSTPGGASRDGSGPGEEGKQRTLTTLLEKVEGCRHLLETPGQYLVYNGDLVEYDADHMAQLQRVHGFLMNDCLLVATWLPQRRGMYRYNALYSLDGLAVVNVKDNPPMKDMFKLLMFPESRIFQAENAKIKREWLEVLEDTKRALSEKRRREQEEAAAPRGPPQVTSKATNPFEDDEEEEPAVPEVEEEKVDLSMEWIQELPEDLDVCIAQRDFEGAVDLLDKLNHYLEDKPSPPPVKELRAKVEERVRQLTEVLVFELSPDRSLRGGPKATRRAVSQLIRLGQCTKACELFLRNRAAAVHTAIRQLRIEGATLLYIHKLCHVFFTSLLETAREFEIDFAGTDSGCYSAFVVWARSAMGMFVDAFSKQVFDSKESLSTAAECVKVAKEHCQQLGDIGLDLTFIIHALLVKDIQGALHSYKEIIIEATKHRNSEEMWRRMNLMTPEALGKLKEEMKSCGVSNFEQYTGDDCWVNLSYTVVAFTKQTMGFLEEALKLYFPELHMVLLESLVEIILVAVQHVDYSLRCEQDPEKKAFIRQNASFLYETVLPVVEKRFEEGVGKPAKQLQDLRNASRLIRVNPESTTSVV

| effect of a mutation on the interaction | Variant |
| --- | --- |
| with no effect | A24V |

Variants of: B1
Conditions: with tb22b_human TBC1D22B

| effect of a mutation on the interaction | Variant |
| --- | --- |
| with no effect | A24V |

Variants of: B1
Conditions: with p85b_human PIK3R2, O00459
Chain of p85b_human PIK3R2, O00459 (O00459 whole entry): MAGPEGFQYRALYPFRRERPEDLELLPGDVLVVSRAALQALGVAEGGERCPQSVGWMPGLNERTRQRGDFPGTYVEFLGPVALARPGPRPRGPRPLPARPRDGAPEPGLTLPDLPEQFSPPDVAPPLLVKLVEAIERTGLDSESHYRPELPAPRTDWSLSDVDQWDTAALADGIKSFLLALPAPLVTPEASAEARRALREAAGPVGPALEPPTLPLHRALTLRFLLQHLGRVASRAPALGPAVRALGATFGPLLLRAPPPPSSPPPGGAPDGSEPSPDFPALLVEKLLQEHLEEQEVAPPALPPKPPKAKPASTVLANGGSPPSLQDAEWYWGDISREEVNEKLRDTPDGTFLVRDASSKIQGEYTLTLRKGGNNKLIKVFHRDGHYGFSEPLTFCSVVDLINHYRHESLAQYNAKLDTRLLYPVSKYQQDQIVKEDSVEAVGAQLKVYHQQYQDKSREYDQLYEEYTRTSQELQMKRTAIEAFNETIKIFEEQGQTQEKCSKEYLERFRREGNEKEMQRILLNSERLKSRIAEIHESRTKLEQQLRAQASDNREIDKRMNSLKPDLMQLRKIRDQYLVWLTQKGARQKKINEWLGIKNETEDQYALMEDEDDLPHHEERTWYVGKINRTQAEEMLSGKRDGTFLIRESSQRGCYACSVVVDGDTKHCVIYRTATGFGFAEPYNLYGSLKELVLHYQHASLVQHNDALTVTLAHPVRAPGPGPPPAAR

| effect of a mutation on the interaction | Variant |
| --- | --- |
| with no effect | A24V |

Variants of: B1
Conditions: with rpac1_human POLR1C

| effect of a mutation on the interaction | Variant |
| --- | --- |
| with no effect | A24V |

Variants of: B1
Conditions: with pfd5_human PFDN5, Q99471
Chain of pfd5_human PFDN5, Q99471 (Q99471 whole entry): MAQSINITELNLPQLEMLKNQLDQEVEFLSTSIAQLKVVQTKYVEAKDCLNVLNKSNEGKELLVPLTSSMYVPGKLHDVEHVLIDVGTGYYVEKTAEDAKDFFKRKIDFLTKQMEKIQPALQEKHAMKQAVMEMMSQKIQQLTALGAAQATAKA

| effect of a mutation on the interaction | Variant |
| --- | --- |
| with no effect | A24V |

Variants of: B1
Conditions: with nek6_human NEK6, Q9HC98
Chain of nek6_human NEK6, Q9HC98 (Q9HC98 whole entry): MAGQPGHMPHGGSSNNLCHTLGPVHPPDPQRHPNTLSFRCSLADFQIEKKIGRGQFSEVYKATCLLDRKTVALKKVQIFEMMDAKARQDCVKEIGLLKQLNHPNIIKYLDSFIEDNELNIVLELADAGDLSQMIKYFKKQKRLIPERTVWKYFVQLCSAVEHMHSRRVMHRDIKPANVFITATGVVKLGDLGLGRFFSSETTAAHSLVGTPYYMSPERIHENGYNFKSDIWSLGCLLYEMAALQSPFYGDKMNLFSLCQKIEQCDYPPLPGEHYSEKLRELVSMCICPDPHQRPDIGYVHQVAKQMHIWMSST

| effect of a mutation on the interaction | Variant |
| --- | --- |
| with no effect | A24V |

Variants of: B1
Conditions: with exos5_human EXOSC5, Q9NQT4
Chain of exos5_human EXOSC5, Q9NQT4 (Q9NQT4 whole entry): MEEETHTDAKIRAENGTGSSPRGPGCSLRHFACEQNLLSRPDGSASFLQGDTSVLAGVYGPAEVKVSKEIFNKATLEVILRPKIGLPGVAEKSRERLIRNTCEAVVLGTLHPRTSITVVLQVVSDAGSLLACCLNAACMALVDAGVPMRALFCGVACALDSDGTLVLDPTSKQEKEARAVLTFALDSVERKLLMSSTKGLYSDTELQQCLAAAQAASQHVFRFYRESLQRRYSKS

| effect of a mutation on the interaction | Variant |
| --- | --- |
| with no effect | A24V |

Variants of: B1
Conditions: with tstd2_human TSTD2, Q5T7W7
Chain of tstd2_human TSTD2, Q5T7W7 (Q5T7W7 whole entry): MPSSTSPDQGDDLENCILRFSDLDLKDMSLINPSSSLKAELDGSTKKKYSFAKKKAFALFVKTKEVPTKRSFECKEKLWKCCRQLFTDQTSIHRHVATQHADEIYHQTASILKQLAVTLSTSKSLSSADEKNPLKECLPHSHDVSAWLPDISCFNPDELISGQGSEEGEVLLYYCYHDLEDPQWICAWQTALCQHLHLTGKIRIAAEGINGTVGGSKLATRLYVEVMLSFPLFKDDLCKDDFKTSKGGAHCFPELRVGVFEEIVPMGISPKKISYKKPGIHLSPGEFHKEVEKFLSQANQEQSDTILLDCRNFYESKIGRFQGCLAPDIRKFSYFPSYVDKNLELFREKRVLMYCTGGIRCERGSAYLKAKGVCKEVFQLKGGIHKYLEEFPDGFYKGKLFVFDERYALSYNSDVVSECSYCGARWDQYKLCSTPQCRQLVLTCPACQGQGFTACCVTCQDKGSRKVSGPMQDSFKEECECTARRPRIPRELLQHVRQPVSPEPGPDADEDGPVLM

| effect of a mutation on the interaction | Variant |
| --- | --- |
| with no effect | A24V |

Variants of: B2
Conditions: with nud18_human NUDT18, Q6ZVK8

| effect of a mutation on the interaction | Variant |
| --- | --- |
| with no effect | G111A |
| with no effect | M181V |

Variants of: B3
Conditions: with tri23_human TRIM23, P36406
Chain of tri23_human TRIM23, P36406 (P36406 whole entry): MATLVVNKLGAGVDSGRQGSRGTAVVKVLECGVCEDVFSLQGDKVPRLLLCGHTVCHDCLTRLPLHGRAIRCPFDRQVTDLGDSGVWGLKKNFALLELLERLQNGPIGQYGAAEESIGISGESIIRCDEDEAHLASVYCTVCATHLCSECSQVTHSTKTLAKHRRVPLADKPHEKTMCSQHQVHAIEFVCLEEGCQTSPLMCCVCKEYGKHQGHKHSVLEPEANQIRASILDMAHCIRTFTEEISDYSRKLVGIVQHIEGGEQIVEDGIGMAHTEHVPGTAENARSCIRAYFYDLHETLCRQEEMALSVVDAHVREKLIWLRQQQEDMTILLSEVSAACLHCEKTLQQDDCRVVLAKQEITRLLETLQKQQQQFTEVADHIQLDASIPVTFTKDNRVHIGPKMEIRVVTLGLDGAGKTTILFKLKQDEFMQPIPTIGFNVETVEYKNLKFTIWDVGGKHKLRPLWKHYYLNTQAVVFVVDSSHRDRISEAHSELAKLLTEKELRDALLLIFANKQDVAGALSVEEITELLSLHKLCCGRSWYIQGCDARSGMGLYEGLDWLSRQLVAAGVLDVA

| effect of a mutation on the interaction | Variant |
| --- | --- |
| with no effect | N432S |

Variants of: B4
Conditions: with trim1_human MID2, Q9UJV3
Chain of trim1_human MID2, Q9UJV3 (Q9UJV3 whole entry): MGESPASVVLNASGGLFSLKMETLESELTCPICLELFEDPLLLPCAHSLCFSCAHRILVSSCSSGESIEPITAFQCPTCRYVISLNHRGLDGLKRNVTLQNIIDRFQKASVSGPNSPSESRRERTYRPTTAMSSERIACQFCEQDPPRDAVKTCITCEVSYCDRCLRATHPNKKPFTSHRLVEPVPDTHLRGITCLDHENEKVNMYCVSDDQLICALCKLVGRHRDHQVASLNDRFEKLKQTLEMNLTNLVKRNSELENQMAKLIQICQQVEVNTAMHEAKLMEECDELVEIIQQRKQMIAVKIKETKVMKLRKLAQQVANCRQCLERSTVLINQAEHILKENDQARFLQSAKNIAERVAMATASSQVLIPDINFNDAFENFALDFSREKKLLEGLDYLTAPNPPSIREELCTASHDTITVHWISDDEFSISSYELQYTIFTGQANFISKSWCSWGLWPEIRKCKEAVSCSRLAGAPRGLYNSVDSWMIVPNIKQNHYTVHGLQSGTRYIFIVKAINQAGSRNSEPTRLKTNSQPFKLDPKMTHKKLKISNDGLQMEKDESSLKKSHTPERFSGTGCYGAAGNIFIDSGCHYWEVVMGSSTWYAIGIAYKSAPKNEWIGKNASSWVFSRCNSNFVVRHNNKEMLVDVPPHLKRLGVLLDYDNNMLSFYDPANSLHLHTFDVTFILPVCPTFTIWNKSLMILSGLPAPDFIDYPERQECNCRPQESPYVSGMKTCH

| effect of a mutation on the interaction | Variant |
| --- | --- |
| with no effect | T796M |

Variants of: B4
Conditions: with max_human MAX

| effect of a mutation on the interaction | Variant |
| --- | --- |
| with no effect | Q251E |
